# T1: Drp53 (Danio rerio, UniProt P79734 1-373)
# T1 sequence: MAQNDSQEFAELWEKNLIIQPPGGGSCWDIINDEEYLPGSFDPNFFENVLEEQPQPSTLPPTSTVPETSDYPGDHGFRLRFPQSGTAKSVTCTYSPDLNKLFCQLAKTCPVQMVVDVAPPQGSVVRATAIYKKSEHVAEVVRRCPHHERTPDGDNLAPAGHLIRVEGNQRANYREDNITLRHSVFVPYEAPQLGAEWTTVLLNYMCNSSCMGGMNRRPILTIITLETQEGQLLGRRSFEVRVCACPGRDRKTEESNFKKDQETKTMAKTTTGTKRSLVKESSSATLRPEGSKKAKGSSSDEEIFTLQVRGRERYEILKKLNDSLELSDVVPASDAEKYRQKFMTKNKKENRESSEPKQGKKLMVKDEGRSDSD
# T2: ΔNp73β (Homo sapiens, UniProt O15350-9 1-450)
# T2 sequence: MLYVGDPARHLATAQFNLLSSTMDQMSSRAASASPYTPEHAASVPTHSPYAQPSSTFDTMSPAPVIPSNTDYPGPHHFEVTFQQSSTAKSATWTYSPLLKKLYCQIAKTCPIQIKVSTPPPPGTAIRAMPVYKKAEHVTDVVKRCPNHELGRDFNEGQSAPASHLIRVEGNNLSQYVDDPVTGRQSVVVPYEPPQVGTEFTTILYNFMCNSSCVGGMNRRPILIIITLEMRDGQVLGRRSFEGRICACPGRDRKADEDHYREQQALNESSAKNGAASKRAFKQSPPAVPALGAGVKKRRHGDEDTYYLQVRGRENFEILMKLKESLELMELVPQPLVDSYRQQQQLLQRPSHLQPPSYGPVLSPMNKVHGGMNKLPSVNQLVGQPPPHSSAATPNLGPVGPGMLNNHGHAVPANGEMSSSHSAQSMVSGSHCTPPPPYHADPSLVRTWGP
# T3: p73CT (Homo sapiens, UniProt O15350 104-383)
# T3 sequence: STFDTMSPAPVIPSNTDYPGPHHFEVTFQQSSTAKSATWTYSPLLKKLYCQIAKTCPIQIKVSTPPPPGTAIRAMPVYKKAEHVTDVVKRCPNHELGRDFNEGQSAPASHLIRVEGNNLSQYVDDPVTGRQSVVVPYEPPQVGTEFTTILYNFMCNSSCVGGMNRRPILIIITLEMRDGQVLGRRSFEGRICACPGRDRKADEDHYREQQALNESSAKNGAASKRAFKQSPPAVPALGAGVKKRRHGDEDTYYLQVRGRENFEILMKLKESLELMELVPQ
# T4: ΔNp63β (Homo sapiens, UniProt Q9H3D4-4 1-461)
# T4 sequence: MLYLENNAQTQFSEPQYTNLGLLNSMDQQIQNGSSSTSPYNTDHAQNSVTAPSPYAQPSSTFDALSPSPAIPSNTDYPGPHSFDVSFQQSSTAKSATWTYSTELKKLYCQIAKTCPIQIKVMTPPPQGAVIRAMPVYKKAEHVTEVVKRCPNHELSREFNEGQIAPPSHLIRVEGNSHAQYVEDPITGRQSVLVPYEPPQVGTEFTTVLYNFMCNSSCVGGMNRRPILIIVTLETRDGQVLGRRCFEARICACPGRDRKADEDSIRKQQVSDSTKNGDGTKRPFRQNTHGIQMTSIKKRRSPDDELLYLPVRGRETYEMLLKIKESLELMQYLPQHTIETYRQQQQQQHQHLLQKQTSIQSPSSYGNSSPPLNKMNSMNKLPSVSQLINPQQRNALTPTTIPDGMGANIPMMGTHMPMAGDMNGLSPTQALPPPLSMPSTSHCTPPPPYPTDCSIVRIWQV
# B1: Ref_Alexa488 (dsDNA)
# DNA 1: GGACATGTCCGGACATGTCC
# DNA 2: GGACATGTCCGGACATGTCC
# B2: Ref competitor (dsDNA)
# DNA 1: CGCGGACATGTCCGGACATGTCCCGC
# DNA 2: GCGGGACATGTCCGGACATGTCCGCG
# Columns and labels:
# Drp53 = target: T1, Drp53; experiment: fluorescence anisotropy, direct; 25 mM NaPi, 225 mM NaCl, 10% v/v glycerol, 5 mM DTT, 0.2 mg/mL BSA, 22°C; 20 nM labelled DNA; pH not stated for the binding assay; settings: protein: recombinant; tags: N-terminal 6xHis-lipoyl-TEV tag, cleaved; chain copies: 4; label: 5'-Alexa488
# Mmp53 = Mmp53 (Mus musculus, UniProt P02340 1-390); experiment: as above; settings: protein: recombinant; tags: N-terminal 6xHis-lipoyl-TEV tag, cleaved; chain copies: 4; label: 5'-Alexa488
# Sequence of Mmp53 (P02340 whole entry): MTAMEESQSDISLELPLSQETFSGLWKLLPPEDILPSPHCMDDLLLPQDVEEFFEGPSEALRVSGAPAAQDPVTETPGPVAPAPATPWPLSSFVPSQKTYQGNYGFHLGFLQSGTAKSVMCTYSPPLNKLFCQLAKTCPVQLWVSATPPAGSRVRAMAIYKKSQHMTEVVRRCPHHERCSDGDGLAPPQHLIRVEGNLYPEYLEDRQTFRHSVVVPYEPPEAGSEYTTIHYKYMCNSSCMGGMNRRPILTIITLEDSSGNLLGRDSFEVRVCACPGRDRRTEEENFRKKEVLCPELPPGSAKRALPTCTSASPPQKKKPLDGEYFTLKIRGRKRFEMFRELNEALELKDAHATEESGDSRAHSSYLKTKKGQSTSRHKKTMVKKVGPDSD
# ΔNp73β = target: T2, ΔNp73β; experiment: as above; settings: protein: recombinant; tags: N-terminal 6xHis-lipoyl-TEV tag, cleaved; chain copies: 4; label: 5'-Alexa488
# p73CT = target: T3, p73CT; experiment: as above; settings: protein: recombinant; tags: N-terminal 6xHis-lipoyl-TEV tag, cleaved; chain copies: 4; label: 5'-Alexa488
# ΔNp63β = target: T4, ΔNp63β; experiment: as above; settings: protein: recombinant; tags: N-terminal 6xHis-lipoyl-TEV tag, cleaved; chain copies: 4; label: 5'-Alexa488
# Xlp53 = Xlp53 (Xenopus laevis, UniProt Q7T1D0 1-362); experiment: anisotropy competition; 25 mM NaPi, 225 mM NaCl, 10% v/v glycerol, 5 mM DTT, 0.2 mg/mL BSA, 22°C; 20 nM labelled DNA; pH not stated for the binding assay; settings: protein: recombinant; tags: N-terminal 6xHis-lipoyl-TEV tag, cleaved; chain copies: 4
# Sequence of Xlp53 (Q7T1D0 entry or part of it): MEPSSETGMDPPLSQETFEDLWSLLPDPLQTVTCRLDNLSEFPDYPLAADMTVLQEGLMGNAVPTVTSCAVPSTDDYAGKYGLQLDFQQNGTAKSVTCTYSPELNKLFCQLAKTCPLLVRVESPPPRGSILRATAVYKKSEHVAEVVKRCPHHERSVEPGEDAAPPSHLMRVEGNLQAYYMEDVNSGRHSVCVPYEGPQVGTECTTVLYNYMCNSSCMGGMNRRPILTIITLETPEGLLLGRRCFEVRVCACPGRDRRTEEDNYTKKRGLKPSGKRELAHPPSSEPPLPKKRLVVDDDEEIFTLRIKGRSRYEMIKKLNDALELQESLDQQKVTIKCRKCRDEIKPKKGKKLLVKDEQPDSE
Binder,Kd (Drp53),Kd (Mmp53),Kd (ΔNp73β),Kd (p73CT),Kd (ΔNp63β),Kd (Xlp53)
B1,-7.2 ± 0.03 log10(M),-7.02 ± 0.04 log10(M),-7.26 ± 0.02 log10(M),-6.62 ± 0.04 log10(M),-7.13 ± 0.04 log10(M),
B2,,,,,,-7.08 log10(M)
